In article PMC11602996, “Discovery, characterization, and structure of a cofactor-independent histidine racemase from the oral pathogen Fusobacterium nucleatum” (The Journal of Biological Chemistry, 2024) one finds Km, kcat and kcat/Km data, which are given here for two proteins.

Substrate in data set [1]: N[C@H](Cc1c[nH]cn1)C(=O)O
The experiment in a line: purified protein. The following applies: 20 mM NaH2PO4, 100 mM NaCl, pH 7.5, 25 °C. The format is biochemical, Fusobacterium nucleatum.

Substrate in data set [2]: N[C@@H](Cc1c[nH]cn1)C(=O)O
The experiment in a line: purified protein. Conditions: 20 mM NaH2PO4, 100 mM NaCl, pH 7.5, 25 °C. The format is biochemical, Fusobacterium nucleatum.

B1: HisR from F. nucleatum ATCC 23726 (Fusobacterium nucleatum subsp. nucleatum ATCC 23726) (protein)
chain: MDGKVQVLDFIKINPAGNITILIDNFDIYDKNIPKLSEEIMKETNLYAEQVGFIKEKHLQMMGGEFCGNASRSFASLLAFRDKDFSEQKNYSITCSGESEVLDVDVRTDGAKNKFLAKIKMPKFISLEEISIDEYKLGLVRFSGISHFIFNIKENKETSFENIIDLVKKYLSNEDYSAFGIMFFDKDNLSMKPYVYVKELESGIYENSCASGTTALGYYLKKYKNLDRAKVVQPNGWLEYIIENDEMYIDGPVEIVAEGKVYI
With B1, in “purified protein [1]”, the Km (usually the concentration of substrate that gives half-maximal velocity) stood at 18 mM; the kcat (in general, the maximal rate divided by the concentration of active sites) amounted to 64 s⁻¹; the kcat/Km (as a rule, the second-order rate constant that governs catalysis at low substrate concentration) came out at 4000 M⁻¹ s⁻¹. Also, in “purified protein [2]”, the Km was determined as 5 mM, the kcat came out at 42 s⁻¹ and the kcat/Km was determined as 9000 M⁻¹ s⁻¹.

B2: HisR (FN1732, predicted DapF) from F. nucleatum ATCC 25586 (Fusobacterium nucleatum subsp. nucleatum ATCC 25586) (protein)
chain: MDRKVQVLDFIKINPAGNITILIDNFDIYDKNIPKLSEEIMKETNLYAEQVGFIKDSHLQMMGGEFCGNASRAFASLLAFRDKDFSKQKNYNITCSGESKVLDVDVRNDGAKNKFLAKIKMPKFLSLEEINVDEYKLGLVRFSGINHFIFNIKENKETSFENIIDLVKKYLSNEEYSAFGIMFFDSDNLSMKPYVYVKEVGSGVYENSCASGTTALGYYLKKCKNLDRAKIVQPNGWLEYIIENDEMYIDGPVEIIAEGKIYIGK
notes: C-terminal hexahistidine tag, codon-optimized gene in pET-24b(+), expressed in E. coli BL21(DE3), Ni-NTA purified; homodimer
Take B2: in “purified protein [1]”, the Km is reported as 24 mM, the kcat turned out to be 250 s⁻¹ and the kcat/Km was determined as 10000 M⁻¹ s⁻¹. Besides, in “purified protein [2]”, the Km is 4 mM, the kcat worked out at 74 s⁻¹ and the kcat/Km stood at 20000 M⁻¹ s⁻¹.
